Test results published in US12503511 (COMPASS THERAPEUTICS, dated 2025).
Positions count from the first letter of the chain named.

T1: murine PD-1 expressed on cells (murine, UniProt Q02242 25-288)
T1 construct: whole, on cells; also called muPD-1; mouse PD-1
T1 sequence (looked up): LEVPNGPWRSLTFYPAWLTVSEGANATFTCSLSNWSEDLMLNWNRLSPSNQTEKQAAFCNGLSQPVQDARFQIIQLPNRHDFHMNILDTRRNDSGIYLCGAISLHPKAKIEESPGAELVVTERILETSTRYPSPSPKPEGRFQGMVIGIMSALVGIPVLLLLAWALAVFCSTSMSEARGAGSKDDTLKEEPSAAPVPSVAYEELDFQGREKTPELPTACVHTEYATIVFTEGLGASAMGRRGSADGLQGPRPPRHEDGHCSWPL

B1: mAb31 (antibody, V domains shown)
VH: EVQLLESGGGLVQPGGSLRLSCAASGFTFRSYAMSWVRQAPGKGLEWVSAISNSGTYTYYADSVKGRFTISRDNSKNTLYLQMNSLRAEDTAVYYCARGLDFIVGYTGNDYWGQGTLVTVSS
VL: not shown
B2: mAb26 (antibody, V domains shown)
VH: B1 VH with R30S, S31D
VL: not shown
B3: mAb33 (antibody, V domains shown)
VH: B1 VH with R30N
VL: not shown
B4: mAb34 (antibody, V domains shown)
VH: B1 VH with R30S, S31N, Y106A
VL: not shown
B5: mAb27 (antibody, V domains shown)
VH: B1 VH with R30S
VL: not shown
B6: mAb32 (antibody, V domains shown)
VH: B1 VH with R30G, S31R
VL: not shown
B7: mAb30 (antibody, V domains shown)
VH: B1 VH with R30S, S31A, S35N
VL: not shown
B8: mAb37 (antibody, V domains shown)
VH: B1 VH with Y106R
VL: not shown
B9: mAb36 (antibody, V domains shown)
VH: B1 VH with R30S, S35N, Y106R
VL: not shown
B10: mAb29 (antibody, V domains shown)
VH: B1 VH with R30S, S31N, M34L
VL: not shown
B11: mAb35 (antibody, V domains shown)
VH: B1 VH with R30S, S31G, Y106R
VL: not shown
B12: mAb8 (antibody, V domains shown)
VH: QVQLVQSGAEVKKPGSSVKVSCKASGGTFSSYAINWVRQAPGQGLEWMGGIIPVFGTATYAQKFQGRVTITADESTSTAYMELSSLRSEDTAVYYCARLKFELKDAFDIWGQGTLVTVSS
VL: not shown
B13: mAb9 (antibody, V domains shown)
VH: B12 VH with F101G, I109E
VL: not shown
B14: mAb5 (antibody, V domains shown)
VH: B12 VH with I34F, N35S, F101G
VL: not shown
B15: mAb22 (antibody, V domains shown)
VH: B12 VH with F101G, L115M
VL: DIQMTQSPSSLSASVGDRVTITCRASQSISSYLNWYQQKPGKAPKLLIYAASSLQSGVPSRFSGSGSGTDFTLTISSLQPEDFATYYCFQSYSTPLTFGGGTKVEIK
B16: mAb6 (antibody, V domains shown)
VH: B12 VH with V54I, T57I, T59N, F101G
VL: not shown
B17: mAb14 (antibody, V domains shown)
VH: B12 VH with N35S, G50R, V54L, T59H, F101G
VL: not shown
B18: mAb21 (antibody, V domains shown)
VH: B12 VH with T28P, S30R, Y32H, I34V, N35S, F101S
VL: not shown
B19: mAb13 (antibody, V domains shown)
VH: B12 VH with N35S, F101G, L103F
VL: not shown
B20: mAb23 (antibody, V domains shown)
VH: B12 VH with F101G, L115M
VL: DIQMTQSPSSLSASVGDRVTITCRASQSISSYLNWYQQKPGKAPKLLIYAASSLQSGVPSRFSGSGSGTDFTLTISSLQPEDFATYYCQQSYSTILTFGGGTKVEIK
B21: mAb12 (antibody, V domains shown)
VH: B12 VH with N35S, G44D, V54I, F55V, T57I, T59N, F101G
VL: not shown
B22: mAb11 (antibody, V domains shown)
VH: B12 VH with I51V, V54F, F55L, T59N, F101G, E102I, F107L
VL: not shown
B23: mAb25 (antibody, V domains shown)
VH: B1 VH with R30S, S31D, Y106A
VL: not shown
notes: also called parent PD-1 antibody mAb25
B24: mAb15 (antibody, V domains shown)
VH: B12 VH with N35S, G50R, I52N, V54I, F55L, T59N, F101G, D108S
VL: not shown
B25: mAb16 (antibody, V domains shown)
VH: B12 VH with G50R, V54I, T59D, F101G
VL: not shown
B26: mAb7 (antibody, V domains shown)
VH: B12 VH with V54N, F101G, D105G, F107G
VL: not shown

Each binder was assayed against T2, purified recombinant His tagged human PD-1 (human, UniProt Q15116 25-170) (assay: SPR KD; fold improvement over parent mAb25).
T2 construct: not shown: His tag
T2 sequence (Q15116 25-170 limits assumed): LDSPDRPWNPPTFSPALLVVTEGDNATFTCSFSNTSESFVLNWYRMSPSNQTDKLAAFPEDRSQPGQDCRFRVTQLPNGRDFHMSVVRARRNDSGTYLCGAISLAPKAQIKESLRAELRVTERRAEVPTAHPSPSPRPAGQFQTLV

Row | Binder | Fold improvement over Parent [fold]
1 | B1 | 44
2 | B2 | 24
3 | B3 | 34
4 | B4 | 33
5 | B5 | 104
6 | B6 | 114
7 | B7 | 77
8 | B8 | 17
9 | B9 | 31
10 | B10 | 28
11 | B11 | 27

Each binder was assayed against T3, cyno PD-L1 expressed on cells (cynomolgus) (assay: cell binding EC50 on HEK-cyno PD-L1; fold improvement, reference taken as parent mAb24).
T3 construct: whole, on cells; also called cynomolgus PD-L1

Row | Binder | Fold Improvement [fold]
12 | B12 | 3.42
13 | B13 | 4.15
14 | B14 | 0.74
15 | B15 | 0.89
16 | B16 | 0.61

What follows are binders tested against T4, human PD-1 expressed on cells (human, UniProt Q15116 25-288) (assay: cell binding EC50 on CHO-human PD-1; fold improvement over parent mAb25).
T4 construct: also called huPD-1; CHO cells expressing human PD-1
T4 sequence (Q15116 25-288 limits assumed): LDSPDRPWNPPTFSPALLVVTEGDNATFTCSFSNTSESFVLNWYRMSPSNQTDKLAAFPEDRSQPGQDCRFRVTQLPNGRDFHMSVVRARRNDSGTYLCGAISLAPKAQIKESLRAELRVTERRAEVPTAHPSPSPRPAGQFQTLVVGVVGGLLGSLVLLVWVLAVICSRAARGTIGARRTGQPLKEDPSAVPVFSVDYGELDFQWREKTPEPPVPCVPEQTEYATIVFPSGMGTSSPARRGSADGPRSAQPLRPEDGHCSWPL

Row | Binder | Fold improvement over Parent [fold]
17 | B1 | 0.5
18 | B2 | 0.2
19 | B3 | 0.9
20 | B4 | 0.2
21 | B5 | 0.5
22 | B6 | 0.6
23 | B7 | 0.3
24 | B8 | 1.2
25 | B9 | 0.9
26 | B10 | 0.7
27 | B11 | 0.6

The binders below were run against T3, cyno PD-L1 expressed on cells (assay: cell binding titration, HEK cells expressing cyno PD-L1).

Row | Binder | EC50 [nM]
28 | B12 | 0.08
29 | B13 | 0.07
30 | B14 | 0.39
31 | B15 | 0.32
32 | B16 | 0.47

These binders were tested against T5, human PD-L1 expressed on cells (human, UniProt Q9NZQ7 19-290) (assay: cell binding EC50 on HEK-human PD-L1; fold improvement, reference taken as parent mAb24).
T5 construct: also called huPDL1; human PD-L1 on HEK cells
T5 sequence (Q9NZQ7 19-290 limits assumed): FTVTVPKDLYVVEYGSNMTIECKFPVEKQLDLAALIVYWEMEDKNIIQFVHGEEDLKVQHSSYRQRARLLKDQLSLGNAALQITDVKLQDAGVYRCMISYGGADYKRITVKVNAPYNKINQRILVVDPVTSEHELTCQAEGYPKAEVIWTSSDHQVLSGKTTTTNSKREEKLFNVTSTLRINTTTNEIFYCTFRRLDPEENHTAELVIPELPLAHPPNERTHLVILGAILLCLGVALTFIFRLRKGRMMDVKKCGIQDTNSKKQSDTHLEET

Row | Binder | Fold Improvement [fold]
33 | B17 | 0.1
34 | B13 | 2.5
35 | B18 | 1
36 | B19 | 1
37 | B14 | 1.5
38 | B20 | 0.2
39 | B15 | 0.8
40 | B21 | 0.1
41 | B22 | 0.1
42 | B16 | 1.1

Each binder was assayed against T2, purified recombinant His tagged human … (assay: SPR (Carterra MX96), antibody on chip, His-tagged human PD-1 injected).

Row | Binder | Kd [nM]
43 | B23 | 240
44 | B1 | 5.5
45 | B2 | 10
46 | B3 | 7
47 | B4 | 7.2
48 | B5 | 2.3
49 | B6 | 2.1
50 | B7 | 3.1
51 | B8 | 14
52 | B9 | 7.7
53 | B10 | 8.6
54 | B11 | 9

The binders below were run against T6, purified recombinant His tagged human PD-L1 (human, UniProt Q9NZQ7 19-238) (assay: SPR (Carterra MX96), antibody on chip, His-tagged human PD-L1 injected).
T6 construct: not shown: His tag
T6 sequence (Q9NZQ7 19-238 limits assumed): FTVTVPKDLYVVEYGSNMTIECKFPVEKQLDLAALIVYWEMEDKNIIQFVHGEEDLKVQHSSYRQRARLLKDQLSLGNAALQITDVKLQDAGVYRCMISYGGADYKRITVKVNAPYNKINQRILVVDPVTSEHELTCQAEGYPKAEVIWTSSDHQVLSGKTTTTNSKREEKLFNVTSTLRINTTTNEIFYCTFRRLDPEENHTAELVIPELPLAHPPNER

Row | Binder | Kd [nM]
55 | B12 | 3.7
56 | B13 | 5.4
57 | B18 | 91.5
58 | B19 | 52.3
59 | B14 | 27.1
60 | B20 | 369
61 | B15 | 2.5
62 | B21 | 358
63 | B22 | 156
64 | B16 | 35.9

What follows are binders tested against T6, purified recombinant His tagged human … (assay: SPR KD; fold improvement, reference taken as parent mAb24).

Row | Binder | Fold Improvement [fold]
65 | B12 | 1.2
66 | B13 | 0.8
67 | B18 | 0.1
68 | B19 | 0.1
69 | B14 | 0.2
70 | B15 | 1.8
71 | B16 | 0.1

The binders below were run against T7, cyno PD-1 expressed on cells (cynomolgus) (assay: cell binding titration, CHO cells expressing cyno PD-1).
T7 construct: whole, on cells; also called cyPD-1; cynomolgus PD-1

Row | Binder | EC50 [nM]
72 | B23 | 8.59
73 | B1 | 1.9
74 | B2 | 1.54
75 | B3 | 1.33
76 | B4 | 1.33
77 | B5 | 1.53
78 | B6 | 1.29
79 | B7 | 2.05
80 | B8 | 1.09
81 | B9 | 1.19
82 | B10 | 1.73
83 | B11 | 2.66

These binders were tested against T8, murine PD-L1 expressed on cells (murine, UniProt Q9EP73 19-290) (assay: cell binding titration, A20 cells expressing murine PD-L1).
T8 construct: whole, on cells; also called muPDL1; mouse PD-L1
T8 sequence (Q9EP73 19-290): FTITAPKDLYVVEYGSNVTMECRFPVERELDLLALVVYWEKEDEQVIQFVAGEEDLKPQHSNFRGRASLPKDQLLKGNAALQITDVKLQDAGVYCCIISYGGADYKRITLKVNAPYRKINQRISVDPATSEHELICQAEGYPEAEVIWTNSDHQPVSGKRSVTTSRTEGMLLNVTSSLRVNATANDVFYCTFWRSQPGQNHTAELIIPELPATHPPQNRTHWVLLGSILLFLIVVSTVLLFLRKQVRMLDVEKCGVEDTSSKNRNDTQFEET

Row | Binder | binding result
84 | B12 | no binding
85 | B17 | no binding
86 | B24 | no binding
87 | B13 | no binding
88 | B18 | no binding
89 | B19 | no binding
90 | B14 | no binding
91 | B20 | no binding
92 | B15 | no binding
93 | B21 | no binding
94 | B25 | no binding
95 | B22 | no binding
96 | B16 | no binding
97 | B26 | no binding

Each binder was assayed against T1, murine PD-1 expressed on cells (assay: cell binding titration, CHO cells expressing murine PD-1).

Row | Binder | binding result | EC50 [nM]
98 | B23 | no binding | –
99 | B1 | – | 1.87
100 | B2 | – | 17.9
101 | B3 | – | 10.4
102 | B4 | – | 20.5
103 | B5 | – | 6.14
104 | B6 | – | 2.8
105 | B7 | – | 4.05
106 | B8 | – | 0.942
107 | B10 | – | 2.14

Each binder was assayed against T4, human PD-1 expressed on cells (assay: cell binding titration, CHO cells expressing human PD-1).

Row | Binder | EC50 [nM]
108 | B23 | 0.915
109 | B1 | 1.71
110 | B2 | 3.74
111 | B3 | 1.04
112 | B4 | 3.87
113 | B5 | 1.75
114 | B6 | 1.51
115 | B7 | 2.77
116 | B8 | 0.75
117 | B9 | 1.01
118 | B10 | 1.27
119 | B11 | 1.64

These binders were tested against T5, human PD-L1 expressed on cells (assay: cell binding titration, HEK cells expressing human PD-L1).

Row | Binder | EC50 [nM]
120 | B17 | 1.54
121 | B13 | 0.06
122 | B18 | 0.14
123 | B19 | 1.43
124 | B14 | 0.09
125 | B20 | 0.83
126 | B15 | 0.18
127 | B21 | 1.23
128 | B22 | 1.37
129 | B16 | 0.13

The binders below were run against T7, cyno PD-1 expressed on cells (assay: cell binding EC50 on CHO-cyno PD-1; fold improvement over parent mAb25).

Row | Binder | Fold improvement over Parent [fold]
130 | B1 | 4.5
131 | B2 | 5.6
132 | B3 | 6.5
133 | B4 | 6.5
134 | B5 | 5.6
135 | B6 | 6.7
136 | B7 | 4.2
137 | B8 | 7.9
138 | B9 | 7.2
139 | B10 | 5
140 | B11 | 3.2
